Drawing on PMC3098244, this text covers Kd for one substance.

The target in one experiment is K63-linked diubiquitin (UniProt P0CG48). In words: ITC. The note with it: domain or fragment.
Another experiment deals with K48-linked diubiquitin (UniProt P0CG48). As to the kind of experiment: ITC. The conditions noted are these: domain or fragment.

GB1-HSJ1a-UIM12 (UIM domain of HSJ1a, residues 206-272, fused to GB1), sequence (P25686 206-272): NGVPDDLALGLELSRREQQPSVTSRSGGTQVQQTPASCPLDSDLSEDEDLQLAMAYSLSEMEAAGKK

In the case of “GB1-HSJ1a-UIM12 (UIM domain of HSJ1a, residues 206-272, fused to GB1) (from UniProt P25686-2 206-272)”, the Kd with K63-linked diubiquitin is 153 µM; with K48-linked diubiquitin it was 57 µM.

By Kd is commonly meant the equilibrium constant for the complex coming apart.
